Our source for the protein stability index values is the supplement of paper PMC10724198.

± gives the standard deviation of the averaged measurements.
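Further: PSI is a weighted mean of sequencing reads over stability bins, variants kept only with over 10 reads, mCherry proximal and sfGFP distal, peptide attached via GGGS linker.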

The subject of this data set is Saccharomyces cerevisiae. In words: protein stability index of tFT-peptide fusion (C-terminal peptide) (PSI (0-1 scale)); higher = more stable (slower turnover). The settings on record: genetic background: wild type; temperature: 30 C.
As to PTPPHPSHPTAP, the protein stability index stood at 0.665 ± 0.023.
For the sequence PTPPPLTPPPCF, the protein stability index was determined as 0.678 ± 0.014.
Sequence PTPSPPLPPITP yielded a protein stability index of 0.773 ± 0.024.
Next, PTPTGPGSTSPP: 0.662 ± 0.046; PTQSPSTIPPSP: 0.763 ± 0.11.
To PTRPPPTSHTPY belongs 0.685 ± 0.02.
Turning to PTRPSHTALPSA, the protein stability index was 0.664 ± 0.023.
To PTRRQEVPPEPT belongs 0.636 ± 0.058.
In turn, PTSPTTSPDHKH showed a protein stability index of 0.684 ± 0.15.
To PTTAPPPRSAGA belongs 0.764 ± 0.051; to PTTFLSPPSPPS, 0.71 ± 0.011.
With PTTPPPSVPPLY, the protein stability index came to 0.715 ± 0.042.
As to PTVPLSSVVRDA, the protein stability index amounted to 0.746 ± 0.051.
Consider PVAGMSNTPLYG, for which the protein stability index was found to be 0.685 ± 0.11.
PVAPPQLSPPSS: the protein stability index worked out at 0.6704 ± 0.0048.
In the case of PVCASVSLTSSP, the protein stability index turned out to be 0.697 ± 0.024.
PVGEGAGELGGG displayed a protein stability index of 0.642 ± 0.034.
The sequence PVGGAGCVRGGV came in with a protein stability index of 0.749 ± 0.19.
To PVILPPLAPFLS belongs 0.629 ± 0.019.
Turning to PVITPPSSTPPI, the protein stability index stood at 0.6815 ± 0.0021.
Next, PVLANPQGHPPN: 0.719 ± 0.027; PVLCLRMQVLSK: 0.532 ± 0.032; PVLPPRSFPPSS: 0.697 ± 0.014.
Next, PVLSPPRPFNSL: 0.677 ± 0.018; PVPLPSPFPLPL: 0.664 ± 0.0093.
As to PVPPPPPSLHPP, the protein stability index worked out at 0.636 ± 0.023.
Sequence PVPPRPHGFPHL had a protein stability index of 0.678 ± 0.023.
For the sequence PVRFVDGFLSPI, the protein stability index came out at 0.713 ± 0.03.
PVSPAHLRRSLL came in with a protein stability index of 0.775 ± 0.031.
As to PVSPPRLPRPPP, the protein stability index is 0.615 ± 0.017.
Next, PVSSFHICGPIC: 0.71 ± 0.0098.
As to PVSVALASGSLF, the protein stability index came out at 0.744 ± 0.1.
To PVTALIASLILR belongs 0.611 ± 0.031; to PVTPHESVVPSL, 0.686 ± 0.02; to PVVSRPSNFRWV, 0.663 ± 0.02.
For PVWDGTAKLSVI, the protein stability index is 0.65 ± 0.026.
As for PVYSIARLVPGV, the protein stability index was determined as 0.693 ± 0.029.
Next, PWSFSPLPFVLL: 0.673 ± 0.037.
Next, PYACQYVPCITT: 0.5904 ± 0.004; PYPCPPRPSPPP: 0.76 ± 0.034; PYPLSSLSPSRP: 0.702 ± 0.11.
Sequence PYPPSSLPLQPA had a protein stability index of 0.654 ± 0.025.
In turn, PYPSPLPPAPTP showed a protein stability index of 0.748 ± 0.015.
Regarding PYQQVAESETKK, the protein stability index came out at 0.717 ± 0.089.
To PYVLGRDVVVLF belongs 0.7 ± 0.06; to PYWPLLLTNCQL, 0.734 ± 0.063.
For QAIEAGPPEHGY, the protein stability index amounted to 0.677 ± 0.036.
In the case of QARHNMVYHEIV, the protein stability index came to 0.656 ± 0.029.
Regarding QARQMEIRRLQT, the protein stability index is 0.628 ± 0.047.
For QASEYNREQSGL, the protein stability index is 0.6732 ± 0.00076.
With QCNGDEKKKLYK, the protein stability index amounted to 0.609 ± 0.022.
Regarding QDECPRTTQGRV, the protein stability index came out at 0.656 ± 0.04.
QDISESLLRLLR registered a protein stability index of 0.7119 ± 0.0019.
QDRATRPSHRTQ yielded a protein stability index of 0.684 ± 0.03.
Consider QEGGWKRTYDII, for which the protein stability index amounted to 0.678 ± 0.046.
Next, QEKQDIIEDHTT: 0.655 ± 0.019; QEPARPTGPGQS: 0.628 ± 0.019; QESRRTTVEKQA: 0.638 ± 0.011.
Next, QFMLLRWGFAIR: 0.544 ± 0.024; QFTRSRSRRVRS: 0.6385 ± 0.0048.
To QFVLWPSVLGLG belongs 0.648 ± 0.054; to QGDDNVVGAMNI, 0.628 ± 0.089.
Sequence QGKNAPERTIKQ displayed a protein stability index of 0.631 ± 0.025.
QGKRQEEGERER gave a protein stability index of 0.68 ± 0.052.
To QGVLRAEAVDKG belongs 0.622 ± 0.019.
For QHALSAPRTILP, the protein stability index was 0.654 ± 0.03.
QHFAKAIVQTTT returned a protein stability index of 0.679 ± 0.02.
QHHPRTTPHRPS displayed a protein stability index of 0.714 ± 0.0097.
To QHTDNLLTHLMG belongs 0.6551 ± 0.0028; to QIFPLRLTWSRR, 0.642 ± 0.029; to QIGTVDEWTQQA, 0.738 ± 0.12.
The sequence QIRNNKPYSPSK registered a protein stability index of 0.742 ± 0.0061.
Turning to QKEKKKTVKTKI, the protein stability index came out at 0.723 ± 0.09.
The sequence QKKKDKKKQNRT gave a protein stability index of 0.666 ± 0.029.
On to QKKKHRTTGKTT, for which the protein stability index was found to be 0.655 ± 0.035.
The sequence QKKKKKRNDKTQ showed a protein stability index of 0.71 ± 0.049.
To QKKKKKSKQRGP belongs 0.743 ± 0.034; to QKKKRTKNKNKR, 0.6556 ± 0.0053; to QKKTNKKTTRNE, 0.691 ± 0.013.
For QKLGNNNAKDLM, the protein stability index was 0.66 ± 0.062.
As for QKLKPRKESSKN, the protein stability index stood at 0.698 ± 0.058.
To QKSKSSYPESYV belongs 0.777 ± 0.062; to QKTKTKKIRKKK, 0.7014 ± 0.0018; to QLCNQHCKMISD, 0.662 ± 0.0082.
In the case of QLRDNQNTLLQE, the protein stability index was found to be 0.7138 ± 0.006.
The sequence QLYKLKNMKKKN had a protein stability index of 0.675 ± 0.0085.
Take QMKKDIKPRPGE: the protein stability index is 0.704 ± 0.037.
Next, QNKTKRMQKTKA: 0.629 ± 0.047; QNQKKHTRQQNQ: 0.722 ± 0.072.
In the case of QNQVERREFRFS, the protein stability index was 0.701 ± 0.088.
Regarding QPPPDPPPPTPS, the protein stability index is 0.592 ± 0.014.
As for QPRAKNFRNPCP, the protein stability index is 0.661 ± 0.1.
Next, QPSSYPEANRQG: 0.671 ± 0.028; QPYTPHTAFPAQ: 0.696 ± 0.011.
QQGKWHTRRKKY gave a protein stability index of 0.659 ± 0.07.
Consider QQKKPKKEKTTE, for which the protein stability index is 0.6744 ± 0.0036.
Sequence QQKYKLIQLVII gave a protein stability index of 0.584 ± 0.017.
With QQLILCLFSPFP, the protein stability index was found to be 0.655 ± 0.015.
For QQMSLRKNQKVK, the protein stability index came out at 0.7 ± 0.066.
To QQVRHNVKRVVL belongs 0.7222 ± 0.0025; to QRLQVLIGYDRR, 0.691 ± 0.039; to QRPFKCMIKFNK, 0.67 ± 0.0078.
QRPGKKNGSGRP yielded a protein stability index of 0.682 ± 0.031.
QSGQSELRVVPP showed a protein stability index of 0.72 ± 0.021.
Sequence QSPPRHPSPTAS gave a protein stability index of 0.683 ± 0.082.
QSRPRNMFRVIS came in with a protein stability index of 0.5469 ± 0.0045.
As for QSSGGSDSVLFG, the protein stability index worked out at 0.738 ± 0.041.
Consider QTKAGKRKEKRE, for which the protein stability index came out at 0.72 ± 0.12.
For QTMYFLRKEKEN, the protein stability index amounted to 0.696 ± 0.063.
The sequence QTNAEPPSERVT gave a protein stability index of 0.655 ± 0.083.
In the case of QTNYSNQYKEKY, the protein stability index was found to be 0.713 ± 0.11.
Regarding QTPRYRGLFSAL, the protein stability index is 0.639 ± 0.038.
The sequence QTRKRESPAMVT came in with a protein stability index of 0.639 ± 0.02.
QTRQPKRSDEEK had a protein stability index of 0.686 ± 0.014.
QTRRQKDAEHPR showed a protein stability index of 0.714 ± 0.023.
QTSWLKKTIKRE registered a protein stability index of 0.678 ± 0.072.
